The values below come from paper PMC3539207.

A word on the Kd: it is the free concentration of one partner at which half of the binding sites on the other are occupied at equilibrium, for simple one-to-one binding. Read a high Kd as weaker binding.

Read-outs that look alike come from different tables or passages of the source.

Common to all, as to experiment: fluorescence polarization
On the technique in general: Fluorescence polarisation rises when a labelled molecule tumbles more slowly, as on binding a larger partner.

Series [1] deals with T1, GR DBD WT (Homo sapiens, UniProt P04150 417-506).
In series [2] the target is GR DBD R460D/D462R (Homo sapiens, UniProt P04150 417-506, R460D;D462R).
Series [3] has as its target T1, GR DBD WT. This is another data set of the same source.
Series [4] has as its target T1, GR DBD WT. The source holds these as a separate data set.

T1 sequence (P04150 417-506): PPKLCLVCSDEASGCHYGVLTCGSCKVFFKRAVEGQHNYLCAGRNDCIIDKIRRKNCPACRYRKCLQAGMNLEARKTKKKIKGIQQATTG
Chain of GR DBD R460D/D462R (P04150 417-506 R460D/D462R): as the sequence (P04150 417-506) above, with R44D, D46R counted along it

B1: INS nGRE (dsDNA)
DNA 1: TGCTCTCCTGGAGACATT
DNA 2: AATGTCTCCAGGAGAGCA
For B1, in series [1], the Kd amounted to 0.5 ± 0.07 µM.

B2: FGFR3 nGRE (dsDNA)
DNA 1: CTGCCTCCCCGGAGATGG
DNA 2: CCATCTCCGGGGAGGCAG
In the case of B2, the Kd in series [1] amounted to 0.28 ± 0.08 µM.

B3: (+)GRE (dsDNA)
DNA 1: CCAGAACAGAGTGTTCTGA
DNA 2: TCAGAACACTCTGTTCTGG
Take B3: the Kd in series [2] was determined as 0.08 ± 0.007 µM; in series [3], 0.07 ± 0.007 µM.

B4: TSLP, low site only (dsDNA)
DNA 1: CCGCCTCCGG
DNA 2: CCGGAGGCGG
The molecule B4 returned a Kd in series [4] of 12.7 ± 0.8 µM.
